Measured values published in the MegaScale stability set (Tsuboyama et al. 2023).

B1: HEEH_KT_rd6_3546 (parent)
chain: SEEDKEREHWERLNRDFELRVLDTTFIAHHAEEVIKLLRWLEK
B2: 1ZHC (parent)
chain: HEFRDEISVLKANNPHFDKIFEKHNQLDDDIKTAEQQNASDAEVSHMKKQKLKLKDEIHSMIIEYREK

Variants of: B1
Test: folding stability dG (cDNA display proteolysis); higher = more stable
Settings: PBS, room temperature

Variant | folding stability dG
W10H | 1.09 kcal/mol
W10I | 1.2 kcal/mol
W10K | 1.22 kcal/mol
W10T | 1.07 kcal/mol
W10R | 1.02 kcal/mol
W10E | 1.05 kcal/mol
W10F | 1.32 kcal/mol
W10D | 1.25 kcal/mol
W10Y | 1.09 kcal/mol
W10V | 1.03 kcal/mol
W10N | 1.15 kcal/mol
W10P | 0.979 kcal/mol
W10Q | 1.25 kcal/mol
W10M | 1.05 kcal/mol
W10G | 1.12 kcal/mol
W10C | 1.79 kcal/mol
W10L | 1.36 kcal/mol
W10S | 1.17 kcal/mol
W10A | 1.03 kcal/mol
S1M | 0.916 kcal/mol
S1L | 1.35 kcal/mol
S1C | 2.12 kcal/mol
S1K | 1.18 kcal/mol
S1V | 1.31 kcal/mol
S1T | 1.4 kcal/mol
S1P | 1.43 kcal/mol

Variant | folding stability dG
S1H | 1.35 kcal/mol
S1F | 1.13 kcal/mol
S1Q | 1.5 kcal/mol
S1D | 1.36 kcal/mol
S1R | 1.36 kcal/mol
S1G | 1.51 kcal/mol
S1A | 1.28 kcal/mol
S1N | 1.3 kcal/mol
S1Y | 1.27 kcal/mol
S1W | 1.16 kcal/mol
S1E | 1.19 kcal/mol
S1I | 1.22 kcal/mol
N14K | 1.72 kcal/mol
N14Y | 2.2 kcal/mol
N14L | 2.39 kcal/mol
N14W | 2.69 kcal/mol
N14M | 2.22 kcal/mol
N14R | 2.11 kcal/mol
N14G | 1.55 kcal/mol
N14P | 1.8 kcal/mol
N14I | 2.2 kcal/mol
N14T | 1.8 kcal/mol
N14S | 1.96 kcal/mol
N14V | 2.21 kcal/mol
N14Q | 1.67 kcal/mol
N14F | 2.4 kcal/mol

Variant | folding stability dG
N14H | 1.58 kcal/mol
N14D | 1.1 kcal/mol
N14A | 1.84 kcal/mol
N14C | 2.44 kcal/mol
N14E | 1.2 kcal/mol
F17Y | 1.31 kcal/mol
F17R | 0.912 kcal/mol
F17L | 1.14 kcal/mol
F17P | 0.774 kcal/mol
F17E | 0.738 kcal/mol
F17T | 0.782 kcal/mol
F17A | 0.719 kcal/mol
F17H | 0.86 kcal/mol
F17I | 1.1 kcal/mol
F17Q | 0.444 kcal/mol
F17V | 0.83 kcal/mol
F17N | 0.718 kcal/mol
F17S | 0.873 kcal/mol
F17K | 0.798 kcal/mol
F17G | 0.579 kcal/mol
F17M | 1.01 kcal/mol
F17D | 0.606 kcal/mol
F17W | 1.55 kcal/mol
E2R | 1.61 kcal/mol
E2S | 1.31 kcal/mol
E2L | 1.53 kcal/mol

Variant | folding stability dG
E2M | 1.43 kcal/mol
E2V | 1.45 kcal/mol
E2P | 1.34 kcal/mol
E2Y | 1.45 kcal/mol
E2A | 1.48 kcal/mol
E2Q | 1.62 kcal/mol
E2D | 1.44 kcal/mol
E2F | 1.36 kcal/mol
E2H | 1.42 kcal/mol
E2W | 1.57 kcal/mol
E2N | 1.38 kcal/mol
E2G | 1.57 kcal/mol
E2I | 1.6 kcal/mol
E2K | 1.45 kcal/mol
E2T | 1.48 kcal/mol
D16S | 1.57 kcal/mol
D16I | 1.98 kcal/mol
D16P | 1.94 kcal/mol
D16Y | 2.13 kcal/mol
D16F | 1.96 kcal/mol
D16E | 1.43 kcal/mol
D16M | 1.73 kcal/mol
D16R | 1.76 kcal/mol
D16A | 1.81 kcal/mol
D16G | 1.47 kcal/mol
D16H | 1.93 kcal/mol

Variant | folding stability dG
D16K | 1.38 kcal/mol
D16Q | 1.6 kcal/mol
D16V | 2.04 kcal/mol
D16T | 2.31 kcal/mol
D16W | 2.27 kcal/mol
D16L | 2.02 kcal/mol
D16N | 1.59 kcal/mol
K5W | 1.67 kcal/mol
K5S | 1.08 kcal/mol
K5H | 1.4 kcal/mol
K5T | 1.21 kcal/mol
K5N | 1.29 kcal/mol
K5R | 1.23 kcal/mol
K5Q | 1.11 kcal/mol
K5G | 1.27 kcal/mol
K5A | 1.39 kcal/mol
K5M | 1.21 kcal/mol
K5P | 1.28 kcal/mol
K5V | 1.46 kcal/mol
K5F | 1.44 kcal/mol
K5E | 1.39 kcal/mol
K5D | 1.41 kcal/mol
K5L | 1.15 kcal/mol
K5Y | 1.35 kcal/mol
K5I | 1.17 kcal/mol
E3R | 1.48 kcal/mol

Variant | folding stability dG
E3M | 1.33 kcal/mol
E3L | 1.61 kcal/mol
E3G | 1.28 kcal/mol
E3I | 1.56 kcal/mol
E3P | 1.3 kcal/mol
E3S | 1.45 kcal/mol
E3F | 1.63 kcal/mol
E3Q | 1.41 kcal/mol
E3W | 1.65 kcal/mol
E3V | 1.29 kcal/mol
E3T | 1.19 kcal/mol
E3K | 1.4 kcal/mol
E3H | 1.36 kcal/mol
E3D | 1.49 kcal/mol
E3Y | 1.39 kcal/mol
E3A | 1.22 kcal/mol
E3N | 1.51 kcal/mol
D4T | 1.42 kcal/mol
D4C | 2.16 kcal/mol
D4V | 1.3 kcal/mol
D4I | 1.4 kcal/mol
D4N | 1.44 kcal/mol
D4M | 1.42 kcal/mol
D4K | 1.41 kcal/mol
D4S | 1.29 kcal/mol
D4P | 1.38 kcal/mol

Variant | folding stability dG
D4W | 1.45 kcal/mol
D4G | 1.28 kcal/mol
D4L | 1.53 kcal/mol
D4H | 1.41 kcal/mol
D4R | 1.39 kcal/mol
D4E | 1.56 kcal/mol
D4Q | 1.42 kcal/mol
D4A | 1.38 kcal/mol
D4Y | 1.37 kcal/mol
D4F | 1.46 kcal/mol
R15A | 1.55 kcal/mol
R15W | 2.45 kcal/mol
R15D | 1.22 kcal/mol
R15T | 1.4 kcal/mol
R15F | 2.37 kcal/mol
R15H | 1.42 kcal/mol
R15I | 2.41 kcal/mol
R15K | 1.25 kcal/mol
R15L | 2.07 kcal/mol
R15S | 1.25 kcal/mol
R15N | 1.26 kcal/mol
R15P | 1.11 kcal/mol
R15C | 2.36 kcal/mol
R15E | 1.23 kcal/mol
R15V | 2.08 kcal/mol
R15Q | 1.08 kcal/mol

Variant | folding stability dG
R15M | 1.75 kcal/mol
R15Y | 1.84 kcal/mol
R15G | 1.29 kcal/mol
E8F | 1.96 kcal/mol
E8V | 1.26 kcal/mol
E8G | 1.5 kcal/mol
E8P | 1.09 kcal/mol
E8I | 1.43 kcal/mol
E8Q | 1.34 kcal/mol
E8N | 1.48 kcal/mol
E8H | 1.15 kcal/mol
E8L | 1.47 kcal/mol
E8R | 1.34 kcal/mol
E8M | 1.73 kcal/mol
E8A | 1.4 kcal/mol
E8W | 2.04 kcal/mol
E8D | 1.17 kcal/mol
E8K | 1.32 kcal/mol
E8Y | 1.28 kcal/mol
E8T | 1.58 kcal/mol
E8S | 1.86 kcal/mol
H9V | 1.47 kcal/mol
H9S | 1.38 kcal/mol
H9E | 1.2 kcal/mol
H9C | 2.53 kcal/mol
H9N | 1.23 kcal/mol

Variant | folding stability dG
H9W | 2.17 kcal/mol
H9M | 1.64 kcal/mol
H9I | 1.86 kcal/mol
H9A | 1.42 kcal/mol
H9T | 1.5 kcal/mol
H9G | 1.42 kcal/mol
H9K | 1.34 kcal/mol
H9P | 1.1 kcal/mol
H9F | 1.91 kcal/mol
H9R | 1.31 kcal/mol
H9L | 1.53 kcal/mol
H9D | 1.2 kcal/mol
H9Y | 1.65 kcal/mol
H9Q | 1.35 kcal/mol
E6S | 1.47 kcal/mol
E6M | 1.54 kcal/mol
E6F | 1.73 kcal/mol
E6Y | 1.55 kcal/mol
E6V | 1.56 kcal/mol
E6I | 1.62 kcal/mol
E6T | 1.56 kcal/mol
E6W | 1.8 kcal/mol
E6R | 1.38 kcal/mol
E6H | 1.43 kcal/mol
E6Q | 1.48 kcal/mol
E6N | 1.38 kcal/mol

Variant | folding stability dG
E6L | 1.55 kcal/mol
E6K | 1.18 kcal/mol
E6C | 1.7 kcal/mol
E6P | 1.19 kcal/mol
E6A | 1.49 kcal/mol
E6G | 1.35 kcal/mol
E6D | 0.956 kcal/mol
E11K | 1.69 kcal/mol
E11F | 2.43 kcal/mol
E11L | 2.11 kcal/mol
E11I | 2.17 kcal/mol
E11A | 2.07 kcal/mol
E11S | 2.16 kcal/mol
E11T | 1.91 kcal/mol
E11W | 2.37 kcal/mol
E11R | 2.11 kcal/mol
E11N | 1.59 kcal/mol
E11Q | 1.73 kcal/mol
E11M | 1.9 kcal/mol
E11P | 1.71 kcal/mol
E11V | 1.52 kcal/mol
E11H | 1.79 kcal/mol
E11D | 1.55 kcal/mol
E11Y | 2.17 kcal/mol
E11G | 1.76 kcal/mol
R7W | 1.39 kcal/mol

Variant | folding stability dG
R7P | 1.19 kcal/mol
R7G | 1.47 kcal/mol
R7F | 1.13 kcal/mol
R7Y | 1.21 kcal/mol
R7V | 1.28 kcal/mol
R7E | 1.3 kcal/mol
R7M | 1.46 kcal/mol
R7I | 1.36 kcal/mol
R7Q | 1.34 kcal/mol
R7H | 1.18 kcal/mol
R7D | 1.25 kcal/mol
R7A | 1.53 kcal/mol
R7T | 1.26 kcal/mol
R7N | 1.26 kcal/mol
R7S | 1.3 kcal/mol
R7K | 1.19 kcal/mol
R7L | 1.26 kcal/mol
E18H | 1.79 kcal/mol
E18M | 2.15 kcal/mol
E18D | 1.42 kcal/mol
E18A | 1.79 kcal/mol
E18Q | 1.72 kcal/mol
E18P | 1.52 kcal/mol
E18F | 2.66 kcal/mol
E18K | 1.62 kcal/mol
E18G | 1.36 kcal/mol

Variant | folding stability dG
E18L | 2.33 kcal/mol
E18I | 2.34 kcal/mol
E18N | 1.5 kcal/mol
L13R | 1.88 kcal/mol
L13S | 1.26 kcal/mol
L13H | 1.15 kcal/mol
L13W | 1.75 kcal/mol
L13P | 1.14 kcal/mol
L13E | 0.952 kcal/mol
L13K | 1.4 kcal/mol
L13G | 1.16 kcal/mol
L13Q | 0.972 kcal/mol
L13T | 1.52 kcal/mol
L13I | 1.53 kcal/mol
L13A | 1.17 kcal/mol
L13N | 1.43 kcal/mol
L13D | 1.24 kcal/mol
L13Y | 1.77 kcal/mol
L13M | 1.36 kcal/mol
L13F | 1.7 kcal/mol
L13V | 1.39 kcal/mol
R12M | 1.64 kcal/mol
R12E | 1.17 kcal/mol
R12N | 1.35 kcal/mol
R12L | 1.55 kcal/mol
R12K | 1.29 kcal/mol

Variant | folding stability dG
R12Y | 1.66 kcal/mol
R12V | 1.37 kcal/mol
R12D | 1.65 kcal/mol
R12A | 1.32 kcal/mol
R12Q | 1.26 kcal/mol
R12G | 1.16 kcal/mol
R12T | 1.53 kcal/mol
R12I | 1.41 kcal/mol
R12S | 1.43 kcal/mol
R12P | 1.08 kcal/mol
R12H | 1.15 kcal/mol
R12W | 2.2 kcal/mol
R12F | 1.76 kcal/mol
R12C | 1.6 kcal/mol

Variants of: B2
Test: as above
Settings: PBS, room temperature

Variant | folding stability dG
K68T | 0.49 kcal/mol
K68V | 0.338 kcal/mol
K68S | 0.62 kcal/mol
K68Q | 0.861 kcal/mol
K68R | 1.2 kcal/mol
K68W | 0.673 kcal/mol
K68Y | 0.578 kcal/mol
K68N | 0.792 kcal/mol
